Laboratory results published in the RNAGym collection of RNA variant scans (doi:10.1021/acssynbio.7b00057).

B1: Pistol ribozyme (parent)
chain: GGGUCGUUGUUCCAUAAUCGCGUGGAUAUGGCACGCAAGUUUCUACCGGGCACCGUAAAUGUCCGACUGGAGCCGUUCGGGCGGCUAUAAACAGACCUCAGGCCCGAAGCGUGGCGGCACCUGCCGCCGGUGGUAAAAAAGAUCGGAAGAGCACACGUCU

Variants of: B1
Experiment: aptazyme ON/OFF ratio, guanine; higher = stronger switching; co-transcriptional cleavage with and without guanine
For GGGUCGCGCUGAGAUAAUCGCGUGGAUAUGGCACGCAAGUUUCUACCGGGCACCGUAAAUGUCCGACUGGAGCCGUUCGGGCGGCUAUAAACAGACCUCAGGCCCGAAGCGUGGCGGCACCUGCCGCCGGUGGUAAAAAAGAUCGGAAGAGCACACGUCU [U7C U8G G9C U11G C12A C13G], the “aptazyme ON/OFF ratio” value was 1.18. In the case of GGGUCGACCCAGGAUAAUCGCGUGGAUAUGGCACGCAAGUUUCUACCGGGCACCGUAAAUGUCCGACUGGAGCCGUUCGGGCGGCUAUAAACAGACCUCAGGCCCGAAGCGUGGCGGCACCUGCCGCCGGUGGUAAAAAAGAUCGGAAGAGCACACGUCU [U7A U8C G9C U10C U11A C12G C13G], the “aptazyme ON/OFF ratio” value is reported as 1.08. For GGGUCGGACACUGAUAAUCGCGUGGAUAUGGCACGCAAGUUUCUACCGGGCACCGUAAAUGUCCGACUGGAGCCGUUCGGGCGGCUAUAAACAGACCUCAGGCCCGAAGCGUGGCGGCACCUGCCGCCGGUGGUAAAAAAGAUCGGAAGAGCACACGUCU [U7G U8A G9C U10A U11C C12U C13G], the “aptazyme ON/OFF ratio” value was 1.06. For GGGUCGAAUUUAUAUAAUCGCGUGGAUAUGGCACGCAAGUUUCUACCGGGCACCGUAAAUGUCCGACUGGAGCCGUUCGGGCGGCUAUAAACAGACCUCAGGCCCGAAGCGUGGCGGCACCUGCCGCCGGUGGUAAAAAAGAUCGGAAGAGCACACGUCU [U7A U8A G9U C12A C13U], the “aptazyme ON/OFF ratio” value was 1.52. For GGGUCGAAUCGGUAUAAUCGCGUGGAUAUGGCACGCAAGUUUCUACCGGGCACCGUAAAUGUCCGACUGGAGCCGUUCGGGCGGCUAUAAACAGACCUCAGGCCCGAAGCGUGGCGGCACCUGCCGCCGGUGGUAAAAAAGAUCGGAAGAGCACACGUCU [U7A U8A G9U U10C U11G C12G C13U], the “aptazyme ON/OFF ratio” value was 1.12. For GGGUCGAAGAAUGAUAAUCGCGUGGAUAUGGCACGCAAGUUUCUACCGGGCACCGUAAAUGUCCGACUGGAGCCGUUCGGGCGGCUAUAAACAGACCUCAGGCCCGAAGCGUGGCGGCACCUGCCGCCGGUGGUAAAAAAGAUCGGAAGAGCACACGUCU [U7A U8A U10A U11A C12U C13G], the “aptazyme ON/OFF ratio” value was 1.24. For GGGUCGACGAGACAUAAUCGCGUGGAUAUGGCACGCAAGUUUCUACCGGGCACCGUAAAUGUCCGACUGGAGCCGUUCGGGCGGCUAUAAACAGACCUCAGGCCCGAAGCGUGGCGGCACCUGCCGCCGGUGGUAAAAAAGAUCGGAAGAGCACACGUCU [U7A U8C U10A U11G C12A], the “aptazyme ON/OFF ratio” value was 1.1. With GGGUCGCAUUGCAAUAAUCGCGUGGAUAUGGCACGCAAGUUUCUACCGGGCACCGUAAAUGUCCGACUGGAGCCGUUCGGGCGGCUAUAAACAGACCUCAGGCCCGAAGCGUGGCGGCACCUGCCGCCGGUGGUAAAAAAGAUCGGAAGAGCACACGUCU [U7C U8A G9U U11G C13A] the “aptazyme ON/OFF ratio” value was 1.17. For GGGUCGUUCGGUUAUAAUCGCGUGGAUAUGGCACGCAAGUUUCUACCGGGCACCGUAAAUGUCCGACUGGAGCCGUUCGGGCGGCUAUAAACAGACCUCAGGCCCGAAGCGUGGCGGCACCUGCCGCCGGUGGUAAAAAAGAUCGGAAGAGCACACGUCU [G9C U10G U11G C12U C13U], the “aptazyme ON/OFF ratio” value was 1.05. In the case of GGGUCGGCCAUGUAUAAUCGCGUGGAUAUGGCACGCAAGUUUCUACCGGGCACCGUAAAUGUCCGACUGGAGCCGUUCGGGCGGCUAUAAACAGACCUCAGGCCCGAAGCGUGGCGGCACCUGCCGCCGGUGGUAAAAAAGAUCGGAAGAGCACACGUCU [U7G U8C G9C U10A C12G C13U], the “aptazyme ON/OFF ratio” value is reported as 1.09. For GGGUCGUCGUGUUAUAAUCGCGUGGAUAUGGCACGCAAGUUUCUACCGGGCACCGUAAAUGUCCGACUGGAGCCGUUCGGGCGGCUAUAAACAGACCUCAGGCCCGAAGCGUGGCGGCACCUGCCGCCGGUGGUAAAAAAGAUCGGAAGAGCACACGUCU [U8C U11G C12U C13U], the “aptazyme ON/OFF ratio” value was 1.17. For GGGUCGAAUCAAGAUAAUCGCGUGGAUAUGGCACGCAAGUUUCUACCGGGCACCGUAAAUGUCCGACUGGAGCCGUUCGGGCGGCUAUAAACAGACCUCAGGCCCGAAGCGUGGCGGCACCUGCCGCCGGUGGUAAAAAAGAUCGGAAGAGCACACGUCU [U7A U8A G9U U10C U11A C12A C13G], the “aptazyme ON/OFF ratio” value was 1.14. With GGGUCGGUCCUUGAUAAUCGCGUGGAUAUGGCACGCAAGUUUCUACCGGGCACCGUAAAUGUCCGACUGGAGCCGUUCGGGCGGCUAUAAACAGACCUCAGGCCCGAAGCGUGGCGGCACCUGCCGCCGGUGGUAAAAAAGAUCGGAAGAGCACACGUCU [U7G G9C U10C C12U C13G] the “aptazyme ON/OFF ratio” value was 1.21. For GGGUCGUGACUAAAUAAUCGCGUGGAUAUGGCACGCAAGUUUCUACCGGGCACCGUAAAUGUCCGACUGGAGCCGUUCGGGCGGCUAUAAACAGACCUCAGGCCCGAAGCGUGGCGGCACCUGCCGCCGGUGGUAAAAAAGAUCGGAAGAGCACACGUCU [U8G G9A U10C C12A C13A], the “aptazyme ON/OFF ratio” value was 1.2. In the case of GGGUCGGUGUGAUAUAAUCGCGUGGAUAUGGCACGCAAGUUUCUACCGGGCACCGUAAAUGUCCGACUGGAGCCGUUCGGGCGGCUAUAAACAGACCUCAGGCCCGAAGCGUGGCGGCACCUGCCGCCGGUGGUAAAAAAGAUCGGAAGAGCACACGUCU [U7G U11G C12A C13U], the “aptazyme ON/OFF ratio” value is reported as 1.14. In the case of GGGUCGCGGCUUAAUAAUCGCGUGGAUAUGGCACGCAAGUUUCUACCGGGCACCGUAAAUGUCCGACUGGAGCCGUUCGGGCGGCUAUAAACAGACCUCAGGCCCGAAGCGUGGCGGCACCUGCCGCCGGUGGUAAAAAAGAUCGGAAGAGCACACGUCU [U7C U8G U10C C12U C13A], the “aptazyme ON/OFF ratio” value is reported as 1.61. With GGGUCGAUUACACAUAAUCGCGUGGAUAUGGCACGCAAGUUUCUACCGGGCACCGUAAAUGUCCGACUGGAGCCGUUCGGGCGGCUAUAAACAGACCUCAGGCCCGAAGCGUGGCGGCACCUGCCGCCGGUGGUAAAAAAGAUCGGAAGAGCACACGUCU [U7A G9U U10A U11C C12A] the “aptazyme ON/OFF ratio” value was 1.26. With GGGUCGUCCAAAAAUAAUCGCGUGGAUAUGGCACGCAAGUUUCUACCGGGCACCGUAAAUGUCCGACUGGAGCCGUUCGGGCGGCUAUAAACAGACCUCAGGCCCGAAGCGUGGCGGCACCUGCCGCCGGUGGUAAAAAAGAUCGGAAGAGCACACGUCU [U8C G9C U10A U11A C12A C13A] the “aptazyme ON/OFF ratio” value was 1.07.
